Patent EP4086284A1 (Emergence Therapeutics AG, dated 2022)

Target: T1, Nectin-4 extracellular domain Fc fusion recombinant protein (Nec4-VCC) (human, UniProt Q96NY8 32-349)
T1 construct: extracellular domain; also called Nectin-4-VCC-Fc; not shown: Fc part
T1 sequence (looked up): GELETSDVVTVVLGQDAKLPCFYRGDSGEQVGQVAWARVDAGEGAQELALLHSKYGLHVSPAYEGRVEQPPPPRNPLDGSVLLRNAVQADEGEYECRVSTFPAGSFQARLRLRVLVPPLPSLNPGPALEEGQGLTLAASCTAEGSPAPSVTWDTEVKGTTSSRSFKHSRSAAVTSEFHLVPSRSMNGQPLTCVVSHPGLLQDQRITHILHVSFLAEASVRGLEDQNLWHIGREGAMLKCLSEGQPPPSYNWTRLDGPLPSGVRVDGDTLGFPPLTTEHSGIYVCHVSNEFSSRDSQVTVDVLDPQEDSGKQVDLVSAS
Assay: statement in the legend of the competition ELISA on Nec4-VCC

binding result: binds
B1: Enfortumab (HA22) (antibody, V domains shown)
VH: EVQLVESGGGLVQPGGSLRLSCAASGFTFSSYNMNWVRQAPGKGLEWVSYISSSSSTIYYADSVKGRFTISRDNAKNSLSLQMNSLRDEDTAVYYCARAYYYGMDVWGQGTTVTVSS
VL: DIQMTQSPSSVSASVGDRVTITCRASQGISGWLAWYQQKPGKAPKFLIYAASTLQSGVPSRFSGSGSGTDFTLTISSLQPEDFATYYCQQANSFPPTFGGGTKVEIK
notes: also called HA22 mAb
